The term Kd denotes a measure of binding affinity in units of concentration.

The source of these data is paper PMC9834408, “The SPOC domain is a phosphoserine binding module that bridges transcription machinery with co- and post-transcriptional regulators” (Nature Communications, 2023).

For experiment [1], the target named is WTAP peptide (first 19 N-terminal amino acids) phosphorylated at S14 (UniProt Q15007). As to the kind of experiment: fluorescence polarisation; fluorescence anisotropy; 90 nM labelled peptide (Atto-488 on CTD peptides, FAM on NCoR and FMR1 peptides) titrated with increasing concentrations of SPOC domain; 20 °C; 25 mM Tris-Cl pH 7.4, 25 mM NaCl, 1 mM DTT; three independent dilution series. A general note: Polarisation of emitted light reports the rotation of a fluorescent probe.

Experiment [2] addresses 2×S5P CTD diheptapeptide. Described as above.

Sequence of SHARP SPOC (3496–3664 aa) (Q96T58 3496-3664): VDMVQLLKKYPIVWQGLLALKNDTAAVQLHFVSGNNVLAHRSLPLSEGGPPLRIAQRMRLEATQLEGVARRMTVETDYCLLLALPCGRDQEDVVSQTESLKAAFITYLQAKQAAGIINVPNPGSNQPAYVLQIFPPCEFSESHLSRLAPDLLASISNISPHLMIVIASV

“RBM15 SPOC (775–960 aa) (from UniProt Q96T37 775-960) (domain or fragment)” returned a Kd in experiment [1] of 21.5 µM.
Regarding “SHARP SPOC (3496–3664 aa) (from UniProt Q96T58 3496-3664) (domain or fragment)”, the Kd in experiment [2] was 20.6 µM.
